Literature values in paper PMC3403913.

Target: factor Va (Homo sapiens) (UniProt P12259)
Chain of UniProt P12259 (P12259 29-737, chain 1 of 2): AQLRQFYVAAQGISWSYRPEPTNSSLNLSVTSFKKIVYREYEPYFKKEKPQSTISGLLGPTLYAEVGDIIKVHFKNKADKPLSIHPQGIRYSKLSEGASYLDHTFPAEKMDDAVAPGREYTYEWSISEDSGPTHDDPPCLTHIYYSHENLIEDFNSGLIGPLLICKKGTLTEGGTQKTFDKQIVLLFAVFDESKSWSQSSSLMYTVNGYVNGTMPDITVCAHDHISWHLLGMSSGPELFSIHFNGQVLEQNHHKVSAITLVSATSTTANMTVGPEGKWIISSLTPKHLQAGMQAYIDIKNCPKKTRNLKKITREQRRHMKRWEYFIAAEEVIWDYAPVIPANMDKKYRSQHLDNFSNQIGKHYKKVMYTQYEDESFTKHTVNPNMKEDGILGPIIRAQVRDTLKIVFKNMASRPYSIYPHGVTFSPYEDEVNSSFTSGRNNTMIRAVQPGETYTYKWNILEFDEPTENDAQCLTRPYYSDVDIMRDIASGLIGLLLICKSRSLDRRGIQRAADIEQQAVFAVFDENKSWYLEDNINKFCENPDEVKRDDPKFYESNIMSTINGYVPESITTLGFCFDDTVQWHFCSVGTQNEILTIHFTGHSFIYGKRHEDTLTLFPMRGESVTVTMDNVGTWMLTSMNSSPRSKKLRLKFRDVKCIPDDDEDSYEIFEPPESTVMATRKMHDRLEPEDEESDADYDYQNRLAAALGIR
Chain of UniProt P12259 (P12259 1574-2224, chain 2 of 2): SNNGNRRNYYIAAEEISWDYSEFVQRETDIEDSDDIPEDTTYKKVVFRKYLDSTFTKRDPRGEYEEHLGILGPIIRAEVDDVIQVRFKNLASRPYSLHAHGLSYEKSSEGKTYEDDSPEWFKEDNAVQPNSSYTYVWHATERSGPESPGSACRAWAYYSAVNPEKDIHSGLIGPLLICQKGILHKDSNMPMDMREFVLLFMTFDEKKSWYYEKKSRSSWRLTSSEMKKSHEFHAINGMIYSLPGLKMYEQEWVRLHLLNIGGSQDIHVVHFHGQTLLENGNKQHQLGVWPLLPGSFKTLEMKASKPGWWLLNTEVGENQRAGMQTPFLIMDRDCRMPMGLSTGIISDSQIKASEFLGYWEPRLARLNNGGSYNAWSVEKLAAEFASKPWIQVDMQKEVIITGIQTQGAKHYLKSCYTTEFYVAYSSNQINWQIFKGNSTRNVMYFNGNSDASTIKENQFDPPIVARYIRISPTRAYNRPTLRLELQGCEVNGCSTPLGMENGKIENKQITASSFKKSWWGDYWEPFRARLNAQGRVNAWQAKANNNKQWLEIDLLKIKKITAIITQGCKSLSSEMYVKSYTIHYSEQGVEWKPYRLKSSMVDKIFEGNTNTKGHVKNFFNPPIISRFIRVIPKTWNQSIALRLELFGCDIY

Kd: 0.5 nM
Substance: factor Xa (from UniProt P00742)
